{"source": "paper PMC1140370", "assay_in_all_cases": "EMSA", "key": {"Mcm4/6/7 complex [1]": {"target": "T1, Mcm4/6/7 complex (mouse, UniProt P49717;Q61881;P97311 1-862;1-719;1-821)", "T1 sequence (P49717 whole entry, chain 1 of 3)": "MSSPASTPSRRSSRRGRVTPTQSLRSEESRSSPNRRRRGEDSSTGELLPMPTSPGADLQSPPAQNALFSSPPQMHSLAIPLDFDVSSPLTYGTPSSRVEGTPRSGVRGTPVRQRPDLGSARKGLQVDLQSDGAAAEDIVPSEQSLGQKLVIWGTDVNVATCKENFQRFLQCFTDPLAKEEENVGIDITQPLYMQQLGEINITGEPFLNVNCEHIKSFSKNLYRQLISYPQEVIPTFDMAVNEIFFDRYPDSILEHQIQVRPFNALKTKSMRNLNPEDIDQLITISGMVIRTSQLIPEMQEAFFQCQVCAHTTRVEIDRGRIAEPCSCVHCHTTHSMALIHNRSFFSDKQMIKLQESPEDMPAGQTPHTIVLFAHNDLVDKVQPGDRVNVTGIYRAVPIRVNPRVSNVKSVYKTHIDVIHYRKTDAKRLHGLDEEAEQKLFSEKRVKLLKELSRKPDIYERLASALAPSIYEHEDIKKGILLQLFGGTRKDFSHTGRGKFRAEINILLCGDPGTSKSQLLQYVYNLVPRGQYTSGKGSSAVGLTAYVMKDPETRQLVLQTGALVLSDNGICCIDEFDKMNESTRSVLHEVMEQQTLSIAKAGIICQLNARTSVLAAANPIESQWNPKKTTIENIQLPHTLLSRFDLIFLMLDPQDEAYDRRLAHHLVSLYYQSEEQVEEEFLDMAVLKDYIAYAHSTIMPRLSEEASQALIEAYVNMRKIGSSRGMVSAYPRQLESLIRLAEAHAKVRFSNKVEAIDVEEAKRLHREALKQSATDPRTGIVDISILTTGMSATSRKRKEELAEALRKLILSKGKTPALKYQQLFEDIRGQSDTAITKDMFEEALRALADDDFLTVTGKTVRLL", "T1 sequence (Q61881 whole entry, chain 2 of 3)": "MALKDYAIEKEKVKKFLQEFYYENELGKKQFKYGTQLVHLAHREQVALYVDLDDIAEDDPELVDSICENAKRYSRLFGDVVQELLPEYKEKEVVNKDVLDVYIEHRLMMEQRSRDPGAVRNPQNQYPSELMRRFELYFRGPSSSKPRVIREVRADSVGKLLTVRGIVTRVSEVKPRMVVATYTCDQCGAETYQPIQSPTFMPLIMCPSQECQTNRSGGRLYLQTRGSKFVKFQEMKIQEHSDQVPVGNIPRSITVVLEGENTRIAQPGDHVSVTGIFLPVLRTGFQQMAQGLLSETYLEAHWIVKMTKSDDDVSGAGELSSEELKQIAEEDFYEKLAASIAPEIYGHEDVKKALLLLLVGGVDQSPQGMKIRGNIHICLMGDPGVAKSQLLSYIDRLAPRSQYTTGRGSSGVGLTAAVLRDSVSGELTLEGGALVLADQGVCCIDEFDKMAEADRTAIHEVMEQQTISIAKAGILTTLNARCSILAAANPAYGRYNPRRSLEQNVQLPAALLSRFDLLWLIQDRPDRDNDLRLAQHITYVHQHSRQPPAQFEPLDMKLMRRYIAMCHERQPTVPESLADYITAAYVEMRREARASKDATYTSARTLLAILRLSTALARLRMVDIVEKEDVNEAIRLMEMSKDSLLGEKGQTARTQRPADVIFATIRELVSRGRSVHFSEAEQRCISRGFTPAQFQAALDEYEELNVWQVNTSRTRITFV", "T1 sequence (P97311 whole entry, chain 3 of 3)": "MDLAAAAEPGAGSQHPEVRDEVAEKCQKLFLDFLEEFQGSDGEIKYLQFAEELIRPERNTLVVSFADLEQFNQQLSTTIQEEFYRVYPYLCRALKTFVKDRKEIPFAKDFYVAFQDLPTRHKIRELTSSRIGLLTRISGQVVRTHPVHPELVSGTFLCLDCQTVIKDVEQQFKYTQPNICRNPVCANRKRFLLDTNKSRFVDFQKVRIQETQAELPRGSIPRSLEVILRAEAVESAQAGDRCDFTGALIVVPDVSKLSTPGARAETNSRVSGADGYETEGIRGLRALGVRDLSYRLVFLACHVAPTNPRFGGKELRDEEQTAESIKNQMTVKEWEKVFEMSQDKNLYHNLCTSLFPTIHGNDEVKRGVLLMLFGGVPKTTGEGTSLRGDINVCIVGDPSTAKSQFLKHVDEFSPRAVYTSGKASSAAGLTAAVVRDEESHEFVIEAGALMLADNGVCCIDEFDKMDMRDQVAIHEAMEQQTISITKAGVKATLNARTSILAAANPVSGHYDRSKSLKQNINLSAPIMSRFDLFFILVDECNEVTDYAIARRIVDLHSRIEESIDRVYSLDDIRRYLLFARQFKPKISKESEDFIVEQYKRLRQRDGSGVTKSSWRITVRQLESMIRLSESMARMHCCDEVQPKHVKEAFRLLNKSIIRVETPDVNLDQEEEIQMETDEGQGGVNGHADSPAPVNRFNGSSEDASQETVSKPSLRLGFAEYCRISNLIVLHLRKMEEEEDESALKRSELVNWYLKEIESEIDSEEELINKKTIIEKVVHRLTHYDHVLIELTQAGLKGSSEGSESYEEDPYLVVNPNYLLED"}, "Mcm4/6/7 complex [2]": {"target": "T1, Mcm4/6/7 complex", "remark": "listed apart in the source"}, "Mcm4/6/7 complex [3]": {"target": "T1, Mcm4/6/7 complex", "remark": "listed apart in the source"}, "Mcm4/6/7 complex [4]": {"target": "T1, Mcm4/6/7 complex", "remark": "listed apart in the source"}, "Mcm4/6/7 complex [5]": {"target": "T1, Mcm4/6/7 complex", "remark": "listed apart in the source"}}, "note": "Read-outs that look alike come from different tables or passages of the source.", "data": [{"binder": "Bub-T30 (mixed) DNA 1: GTTTTCCCAGTCACGACGTTGTAAAACGACTTTTTTTTTTTTTTTTTTTTTTTTTTTTTTTACCGAGCTCGAATTCGTAATCATGGTCAT DNA 2: ATGACCATGATTACGAATTCGAGCTCGGTATTTTTTTTTTTTTTTTTTTTTTTTTTTTTTGTCGTTTTACAACGTCGTGACTGGGAAAAC", "values": [{"measurement": "binding result", "setting": "Mcm4/6/7 complex [1]", "value": "binds"}]}, {"binder": "A-fork[3'] (mixed) DNA 1: CGCATCGCCCACCTGCCTCTGGTGGAGGAGCTGCGTGCACTGAGGCAGTTGCACCTGAACCAGCTGATCCGTGCCGCTGGCGTGGTGGCCGCCTGCGCCGGAGTC DNA 2: GGGTGAACCTGCAGGTGGGCAAAGATGTCCTAGCAAGGCACTGGTAGAATGGTGCAACTGCCTCAGTGCACGCAGCTCCTCCACCAGAGGCAGGTGGGCGATGCG DNA 3: GACTCCGGCGCAGGCGGCCACCACGCCAGCGGCACGGATCAGCTGGTTCA", "values": [{"measurement": "binding result", "setting": "Mcm4/6/7 complex [2]", "value": "binds"}]}, {"binder": "A-fork[5'] (mixed) DNA 1: CGCATCGCCCACCTGCCTCTGGTGGAGGAGCTGCGTGCACTGAGGCAGTTGCACCTGAACCAGCTGATCCGTGCCGCTGGCGTGGTGGCCGCCTGCGCCGGAGTC DNA 2: GGGTGAACCTGCAGGTGGGCAAAGATGTCCTAGCAAGGCACTGGTAGAATGGTGCAACTGCCTCAGTGCACGCAGCTCCTCCACCAGAGGCAGGTGGGCGATGCG DNA 3: ATTCTACCAGTGCCTTGCTAGGACATCTTTGCCCACCTGCAGGTTCACCC", "values": [{"measurement": "binding result", "setting": "Mcm4/6/7 complex [2]", "value": "binds"}]}, {"binder": "Bub-T20 (mixed) DNA 1: GTTTTCCCAGTCACGACGTTGTAAAACGACTTTTTTTTTTTTTTTTTTTTTACCGAGCTCGAATTCGTAATCATGGTCAT DNA 2: ATGACCATGATTACGAATTCGAGCTCGGTATTTTTTTTTTTTTTTTTTTTGTCGTTTTACAACGTCGTGACTGGGAAAAC", "values": [{"measurement": "binding result", "setting": "Mcm4/6/7 complex [3]", "value": "binds"}]}, {"binder": "Bub-T40 (mixed) DNA 1: GTTTTCCCAGTCACGACGTTGTAAAACGACTTTTTTTTTTTTTTTTTTTTTTTTTTTTTTTTTTTTTTTTTACCGAGCTCGAATTCGTAATCATGGTCAT DNA 2: ATGACCATGATTACGAATTCGAGCTCGGTATTTTTTTTTTTTTTTTTTTTTTTTTTTTTTTTTTTTTTTTGTCGTTTTACAACGTCGTGACTGGGAAAAC", "values": [{"measurement": "binding result", "setting": "Mcm4/6/7 complex [4]", "value": "binds"}]}, {"binder": "Bub-T50 (mixed) DNA 1: GTTTTCCCAGTCACGACGTTGTAAAACGACTTTTTTTTTTTTTTTTTTTTTTTTTTTTTTTTTTTTTTTTTTTTTTTTTTTACCGAGCTCGAATTCGTAATCATGGTCAT DNA 2: ATGACCATGATTACGAATTCGAGCTCGGTATTTTTTTTTTTTTTTTTTTTTTTTTTTTTTTTTTTTTTTTTTTTTTTTTTGTCGTTTTACAACGTCGTGACTGGGAAAAC", "values": [{"measurement": "binding result", "setting": "Mcm4/6/7 complex [4]", "value": "binds"}]}, {"binder": "3' dT50-extension (mixed) DNA 1: GTTTTCCCAGTCACGACGTTGTAAAACGACGGCCAGTTTTTTTTTTTTTTTTTTTTTTTTTTTTTTTTTTTTTTTTTTTTTTTTTTT DNA 2: ACTGGCCGTCGTTTTACAACGTCGTGACTGGGAAAAC", "values": [{"measurement": "binding result", "setting": "Mcm4/6/7 complex [5]", "value": "binds"}]}]}
